Results on two molecules are retold here after paper doi:10.1101/2025.01.07.631702 (bioRxiv, 2025).

For series [1], the target named is heavy-chain (HC-) FSAP (residues 24-291) (human) (UniProt Q14520). Description: MST.
Series [2] concerns the molecule itself. Description: dynamic light scattering.

In series [1], Histone-H1 (natural protein) showed a Kd of 2000 nM.

B1: heavy-chain (HC-) FSAP (residues 24-291) (domain or fragment)
chain: FSLMSLLESLDPDWTPDQYDYSYEDYNQEENTSSTLTHAENPDWYYTEDQADPCQPNPCEHGGDCLVHGSTFTCSCLAPFSGNKCQKVQNTCKDNPCGRGQCLITQSPPYYRCVCKHPYTGPSCSQVVPVCRPNPCQNGATCSRHKRRSKFTCACPDQFKGKFCEIGSDDCYVGDGYSYRGKMNRTVNQHACLYWNSHLLLQENYNMFMEDAETHGIGEHNFCRNPDADEKPWCFIKVTNDKVKWEYCDVSACSAQDVAYPEESPTEP
modifications: labelled with the Monolith protein labelling kit RED-NHS (in the MST only)
Consider B1, for which the binding result in series [2] is recorded as “binds”.
